The results in this text go back to paper PMC10385607.

For the assay, the target named is Human ALCAM (28–501)-6xhistidine tag (human) (UniProt Q13740). Briefly: ELISA; competition with CD6-Fc.
Sequence of Human ALCAM (28–501)-6xhistidine tag (human) (Q13740 28-501): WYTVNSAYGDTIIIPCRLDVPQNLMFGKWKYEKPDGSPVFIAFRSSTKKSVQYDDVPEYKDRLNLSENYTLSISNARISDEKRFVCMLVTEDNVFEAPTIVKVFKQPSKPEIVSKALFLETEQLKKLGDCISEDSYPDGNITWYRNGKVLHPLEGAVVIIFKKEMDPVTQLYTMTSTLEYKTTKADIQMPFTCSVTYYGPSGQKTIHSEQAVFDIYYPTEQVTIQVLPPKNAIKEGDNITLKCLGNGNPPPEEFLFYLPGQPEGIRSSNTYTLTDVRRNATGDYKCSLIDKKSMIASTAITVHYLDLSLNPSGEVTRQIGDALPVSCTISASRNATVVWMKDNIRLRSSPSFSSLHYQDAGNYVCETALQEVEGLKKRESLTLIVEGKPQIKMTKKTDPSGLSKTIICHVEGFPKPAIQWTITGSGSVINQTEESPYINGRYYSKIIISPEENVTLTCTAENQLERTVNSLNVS

mini-ab V2D7 (from UniProt P03069) registered an IC50 of 5.63 nM.
